This assay addresses HLA-A*02:01 (Homo sapiens, UniProt P04439, D140Y/D185E/D98H/E176V/E277Q/G131W/G231S/I119V/I121R/I166T/I218V/L300P/L318F/N151K/N90K/P208A/P217A/Q86G/Q94H/R138H/R169H/T345S). The assay is described as follows: MHC binding assay (UV-ligand exchange, beta2m ELISA, peptide exchange yield). The settings on record: binding of HLA-class I restricted peptides to HLA-A*02:01, ranged by peptide exchange yield (UV-ligand exchange, β2m ELISA). The method in brief: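 Peptide–HLA-A*02:01 complexes made by UV-mediated exchange of a photocleavable peptide with the test peptide. Exchange products diluted 100-fold on streptavidin-coated plates, 1 h at 37°C, then HRP anti-β2m 1 h at 37°C; TMB read at 450 nm to give exchange yield.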
(In general: In an ELISA, binding on a coated surface is turned into a signal by an enzyme label.)

Take “550 (FLYDEIEAEVNL; listed as Homo sapiens) [compound 550]”: the Peptide exchange result is “″+++″ (≥50% = +++)”. “551 (KLYESLLPFA; listed as Homo sapiens) [compound 551]”: the Peptide exchange result was “″+++″ (≥50% = +++)”. The value for “552 (GLLDLPFRVGV; listed as Homo sapiens) [compound 552]” was “″++++″ (≥75% = ++++)”. In the case of “553 (SLLNQDLHWSL; listed as Homo sapiens) [compound 553]”, the Peptide exchange result is recorded as “″++++″ (≥75% = ++++)”. For the substance “554 (LLMPSSEDLLL; listed as Homo sapiens) [compound 554]”, the Peptide exchange entry was “″+++″ (≥50% = +++)”. The result for “555 (YVLEGLKSV; listed as Homo sapiens) [compound 555]” reads “″+++″ (≥50% = +++)”; that for “556 (FLTDLEDLTL; listed as Homo sapiens) [compound 556]”, “″+++″ (≥50% = +++)”. The value for “557 (KLYDDMIRL; listed as Homo sapiens) [compound 557]” was “″+++″ (≥50% = +++)”; that for “558 (GLLENIPRV; listed as Homo sapiens) [compound 558]” was “″+++″ (≥50% = +++)”.

Take “559 (VTVPPGPSL; listed as Homo sapiens) [compound 559]”: the Peptide exchange entry is on record as “″++″ (≥20% = ++)”. The result for “560 (ALWDIETGQQTTT; listed as Homo sapiens) [compound 560]” reads “″+++″ (≥50% = +++)”; that for “561 (YLQLTQSEL; listed as Homo sapiens) [compound 561]”, “″+++″ (≥50% = +++)”; that for “562 (YLEELPEKLKL; listed as Homo sapiens) [compound 562]”, “″+++″ (≥50% = +++)”.

“563 (WLLPYNGVTV; listed as Homo sapiens) [compound 563]”: the Peptide exchange entry is reported as “″+++″ (≥50% = +++)”.

For the substance “564 (TVTNAVVTV; listed as Homo sapiens) [compound 564]”, the Peptide exchange entry was “″+++″ (≥50% = +++)”. Take “565 (ALQETPTSV; listed as Homo sapiens) [compound 565]”: the Peptide exchange entry was “″++″ (≥20% = ++)”. In the case of “566 (VIADGGIQNV; listed as Homo sapiens) [compound 566]”, the Peptide exchange entry is “″++″ (≥20% = ++)”. The value for “567 (SLLPLDDIVRV; listed as Homo sapiens) [compound 567]” was “″+++″ (≥50% = +++)”; that for “568 (TLYDIAHTPGV; listed as Homo sapiens) [compound 568]” was “″++++″ (≥75% = ++++)”.

For “569 (KLVDRTWTL; listed as Homo sapiens) [compound 569]”, the Peptide exchange entry is reported as “″+++″ (≥50% = +++)”. The result for “570 (ALANQIPTV; listed as Homo sapiens) [compound 570]” reads “″++″ (≥20% = ++)”. The result for “571 (LLLTTIPQI; listed as Homo sapiens) [compound 571]” reads “″+++″ (≥50% = +++)”. For the substance “572 (ALADLIEKELSV; listed as Homo sapiens) [compound 572]”, the Peptide exchange result is “″+++″ (≥50% = +++)”. The value for “573 (ILVANAIVGV; listed as Homo sapiens) [compound 573]” was “″+++″ (≥50% = +++)”; that for “574 (YLLQEPPRTV; listed as Homo sapiens) [compound 574]” was “″++″ (≥20% = ++)”. The result for “575 (YLISQVEGHQV; listed as Homo sapiens) [compound 575]” reads “″+++″ (≥50% = +++)”; that for “576 (ILLNNSGQIKL; listed as Homo sapiens) [compound 576]”, “″++++″ (≥75% = ++++)”; that for “577 (VMFEDGVLMRL; listed as Homo sapiens) [compound 577]”, “″+++″ (≥50% = +++)”.

“578 (FLDPGGPMMKL; listed as Homo sapiens) [compound 578]”: the Peptide exchange entry is given as “″+++″ (≥50% = +++)”.

For “579 (NLMEMVAQL; listed as Homo sapiens) [compound 579]”, the Peptide exchange result is listed as “″++″ (≥20% = ++)”. The value for “580 (LLMENAERV; listed as Homo sapiens) [compound 580]” was “″++″ (≥20% = ++)”; that for “582 (TLCDVILMV; listed as Homo sapiens) [compound 582]” was “″+++″ (≥50% = +++)”; that for “583 (ILANDGVLLAA; listed as Homo sapiens) [compound 583]” was “″+++″ (≥50% = +++)”. The value for “584 (ALAEVAAMENV; listed as Homo sapiens) [compound 584]” was “″+++″ (≥50% = +++)”; that for “585 (ALWDLAADKQTL; listed as Homo sapiens) [compound 585]” was “″++++″ (≥75% = ++++)”; that for “586 (KLKPGDLVGV; listed as Homo sapiens) [compound 586]” was “″+++″ (≥50% = +++)”. The result for “587 (VMNDRLYAI; listed as Homo sapiens) [compound 587]” reads “″+++″ (≥50% = +++)”; that for “588 (SLLPLSHLV; listed as Homo sapiens) [compound 588]”, “″+++″ (≥50% = +++)”; that for “589 (KLYPQLPAEI; listed as Homo sapiens) [compound 589]”, “″+++″ (≥50% = +++)”. As to “590 (SLIEKLWQT; listed as Homo sapiens) [compound 590]”, the Peptide exchange result was “″++″ (≥20% = ++)”. The result for “591 (SMAELDIKL; listed as Homo sapiens) [compound 591]” reads “″+++″ (≥50% = +++)”; that for “592 (RLLSAAENFL; listed as Homo sapiens) [compound 592]”, “″+++″ (≥50% = +++)”. The value for “593 (GLPRFGIEMV; listed as Homo sapiens) [compound 593]” was “″+++″ (≥50% = +++)”; that for “594 (IMLKGDNITL; listed as Homo sapiens) [compound 594]” was “″+++″ (≥50% = +++)”; that for “595 (VLLSIYPRV; listed as Homo sapiens) [compound 595]” was “″+++″ (≥50% = +++)”. In the case of “596 (ALLDQTKTLAESAL; listed as Homo sapiens) [compound 596]”, the Peptide exchange result is recorded as “″+++″ (≥50% = +++)”.

For “597 (KLLEGQVIQL; listed as Homo sapiens) [compound 597]”, the Peptide exchange entry is on record as “″+++″ (≥50% = +++)”.

Turning to “598 (FLFPHSVLV; listed as Homo sapiens) [compound 598]”, the Peptide exchange entry is listed as “″+++″ (≥50% = +++)”. The value for “599 (YLLNDASLISV; listed as Homo sapiens) [compound 599]” was “″+++″ (≥50% = +++)”.

In the case of “600 (ALAAPDIVPAL; listed as Homo sapiens) [compound 600]”, the Peptide exchange entry was “″+++″ (≥50% = +++)”. The result for “601 (SAFPFPVTV; listed as Homo sapiens) [compound 601]” reads “″+++″ (≥50% = +++)”; that for “602 (YLLEQIKLIEV; listed as Homo sapiens) [compound 602]”, “″++++″ (≥75% = ++++)”.

Source of the values: patent US10253076B2, “Peptides and combination of peptides for use in immunotherapy against ovarian cancer and other cancers” (immatics biotechnologies GmbH, priority 2015, dated 2019).
